From patent US20240252614A1 (Pfizer, published 2024)

Key:
PIV1048 [1] = target: T1, PIV1048 (PIV1); test: BLI, 56C stress
T1 construct: Q92C-G134C, A466L, S473L, A480L
Procedure: (§1) The OCTET HTX (Sartorius, Gottingen, Germany) instrument was used to evaluate the expression and conformational integrity for each mutant. All measurements were conducted at 30° C. temperature in 96-well black plates (Corning, Corning, NY) with a final volume of 240 μL per well at a constant agitation rate of 1000 RPM.
(§2) Conformation integrity of PIV1 F protein mutants were evaluated by a thermal stress experiment. Crude cell culture supernatants were normalized based on the results of the titer quantitation and then incubated for 1 hour at room temperature and two higher temperatures. For the initial testing of PIV1 mutants, the two temperatures were 50° C. and 53° C. […] Anti-Human IgG Fc Capture (AHC) biosensors were first equilibrated in PB for before being dipped into more PB to establish the initial baseline. […] The mAb-bound biosensors were then dipped into the thermal stresses cell culture supernatants for 5 minutes.

PIV1050 [2] = target: T2, PIV1050 (PIV1); test: BLI, 56C stress
T2 construct: F113G, F114S, Q92C-G134C, A466V, S473V, A480V
Procedure: as §1, §2

PIV1066 [3] = target: T3, PIV1066 (PIV1); test: BLI, 56C stress
T3 construct: A466I, S473I, A480L, Q92L, G134A
Procedure: as §1, §2

PIV1051 [4] = target: T4, PIV1051 (PIV1); test: BLI, 56C stress
T4 construct: Q92C-G134C, A466V, S473V, A480V
Procedure: as §1, §2

PIV1056 [5] = target: T5, PIV1056 (PIV1); test: BLI, 56C stress
T5 construct: F113G, F114S, A466L, S473L, A480L, Q92A, G134A
Procedure: as §1, §2

PIV1053 [6] = target: T6, PIV1053 (PIV1); test: BLI, 56C stress
T6 construct: F113G, F114S, A466L, S473L, A480L, G134A
Procedure: as §1, §2

PIV1049 [7] = target: T7, PIV1049 (PIV1); test: BLI, 56C stress
T7 construct: Q92C-G134C, A466L, S473L
Procedure: as §1, §2

PIV1061 [8] = target: T8, PIV1061 (PIV1); test: BLI, 56C stress
T8 construct: Q92L, G134A, A466L, S473L
Procedure: as §1, §2

PIV1062 [9] = target: T9, PIV1062 (PIV1); test: BLI, 56C stress
T9 construct: F113G, F114S, A466L, S473L, A480L, Q92A, G134L
Procedure: as §1, §2

PIV1060 [10] = target: T10, PIV1060 (PIV1); test: BLI, 56C stress
T10 construct: Q92L, G134A, A466L, S473L, A480L
Procedure: as §1, §2

PIV1067 [11] = target: T11, PIV1067 (PIV1); test: BLI, 56C stress
T11 construct: F113G, F114S, Q92C-G134C, A466I, S473I, A480I
Procedure: as §1, §2

PIV1057 [12] = target: T12, PIV1057 (PIV1); test: BLI, 56C stress
T12 construct: A466L, S473L, A480L, Q92A, G134A
Procedure: as §1, §2

PIV1059 [13] = target: T13, PIV1059 (PIV1); test: BLI, 56C stress
T13 construct: F113G, F114S, A466L, S473L, A480L, G134A, Q92L
Procedure: as §1, §2

PIV1054 [14] = target: T14, PIV1054 (PIV1); test: BLI, 56C stress
T14 construct: A466L, S473L, A480L, G134A
Procedure: as §1, §2

[15] = target: T15, PIV1 F literature prefusion comparison (PIV1); test: BLI, 56C stress
T15 construct: F113G, F114S, A466I, S473I (Stewart-Jones et al. 2018)
Procedure: as §1, §2

PIV1068 [16] = target: T16, PIV1068 (PIV1); test: BLI, 56C stress
T16 construct: A466I, S473I, A480I, Q92L, G134A
Procedure: as §1, §2

PIV1048 [17] = target: T1, PIV1048; test: BLI, 53C stress
Procedure: as §1, §2

PIV1050 [18] = target: T2, PIV1050; test: BLI, 53C stress
Procedure: as §1, §2

PIV1065 = target: T17, PIV1065 (PIV1); test: BLI, 53C stress
T17 construct: F113G, F114S, Q92C-G134C, A466I, S473I
Procedure: as §1, §2

PIV1055 = target: T18, PIV1055 (PIV1); test: BLI, 53C stress
T18 construct: A466L, S473L, G134A
Procedure: as §1, §2

PIV1066 [19] = target: T3, PIV1066; test: BLI, 53C stress
Procedure: as §1, §2

PIV1063 = target: T19, PIV1063 (PIV1); test: BLI, 53C stress
T19 construct: A466L, S473L, A480L, Q92A, G134L
Procedure: as §1, §2

PIV1051 [20] = target: T4, PIV1051; test: BLI, 53C stress
Procedure: as §1, §2

PIV1056 [21] = target: T5, PIV1056; test: BLI, 53C stress
Procedure: as §1, §2

PIV1053 [22] = target: T6, PIV1053; test: BLI, 53C stress
Procedure: as §1, §2

PIV1049 [23] = target: T7, PIV1049; test: BLI, 53C stress
Procedure: as §1, §2

PIV1061 [24] = target: T8, PIV1061; test: BLI, 53C stress
Procedure: as §1, §2

PIV1062 [25] = target: T9, PIV1062; test: BLI, 53C stress
Procedure: as §1, §2

PIV1060 [26] = target: T10, PIV1060; test: BLI, 53C stress
Procedure: as §1, §2

PIV1067 [27] = target: T11, PIV1067; test: BLI, 53C stress
Procedure: as §1, §2

PIV1057 [28] = target: T12, PIV1057; test: BLI, 53C stress
Procedure: as §1, §2

PIV1064 = target: T20, PIV1064 (PIV1); test: BLI, 53C stress
T20 construct: F113G, F114S, Q92C-G134C, A466I, S473I, A480L
Procedure: as §1, §2

PIV1047 = target: T21, PIV1047 (PIV1); test: BLI, 53C stress
T21 construct: F113G, F114S, Q92C-G134C, A466L, S473L, A480L
Procedure: as §1, §2

PIV1058 = target: T22, PIV1058 (PIV1); test: BLI, 53C stress
T22 construct: A466L, S473L, Q92A, G134A
Procedure: as §1, §2

PIV1059 [29] = target: T13, PIV1059; test: BLI, 53C stress
Procedure: as §1, §2

PIV1054 [30] = target: T14, PIV1054; test: BLI, 53C stress
Procedure: as §1, §2

[31] = target: T15, PIV1 F literature prefusion comparison; test: BLI, 53C stress
Procedure: as §1, §2

PIV1052 = target: T23, PIV1052 (PIV1); test: BLI, 53C stress
T23 construct: Q92C-G134C, A466V, S473V; also called PV1052
Procedure: as §1, §2

PIV1068 [32] = target: T16, PIV1068; test: BLI, 53C stress
Procedure: as §1, §2

PIV1014 = target: T24, PIV1014 (PIV1); test: BLI, no stress
T24 construct: Q92C-G134C
Procedure: All measurements were conducted at 30° C. temperature in 96-well black plates (Corning, Corning, NY) with a final volume of 240 μL per well at a constant agitation rate of 1000 RPM.
as §2
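Also: binding of thermally stressed PIV1 F mutant supernatant to mAb on AHC biosensors for 5 min.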

B1: PIV1-8 mAb (antibody, V domains shown)
VH: QVQLVQSGAEVKKPGSSVKVSCEASGGTFSNYVISWVRQAPGQGLEWMGGIIPVFATAKYAQKFQGRVTIIADQSTNTAYLELSSLRSDDTAVYFCASVDSGGTWWDAFAIWGQGTMVTVSS
VL: QAVVTQPRSVSGSPGQAVTISCTGTSSDVGGYNYVSWYQHHPGKAPKLIIYDVTKRPSGVPDRFSGSKSGNTASLTISGLQTEYEADYYCCSYAGSYTLVFGGGTKLTVLG
notes: human IgG1; also called hPIV1-8 mAb; hPIV1-8
PIV1048 [1]
  Response Shift: 0.71 nm
PIV1050 [2]
  Response Shift: 0.695 nm
PIV1066 [3]
  Response Shift: 0.582 nm
PIV1051 [4]
  Response Shift: 0.322 nm
PIV1056 [5]
  Response Shift: 0.751 nm
PIV1053 [6]
  Response Shift: 0.776 nm
PIV1049 [7]
  Response Shift: 0.294 nm
PIV1061 [8]
  Response Shift: 0.526 nm
PIV1062 [9]
  Response Shift: 0.623 nm
PIV1060 [10]
  Response Shift: 0.597 nm
PIV1067 [11]
  Response Shift: 0.728 nm
PIV1057 [12]
  Response Shift: 0.737 nm
PIV1059 [13]
  Response Shift: 0.784 nm
PIV1054 [14]
  Response Shift: 0.723 nm
[15]
  Response Shift: 0.119 nm
PIV1068 [16]
  Response Shift: 0.559 nm
PIV1048 [17]
  Response Shift: 0.783 nm
PIV1050 [18]
  Response Shift: 0.907 nm
PIV1065
  Response Shift: 0.816 nm
PIV1055
  Response Shift: 0.787 nm
PIV1066 [19]
  Response Shift: 0.722 nm
PIV1063
  Response Shift: -0.036 nm
PIV1051 [20]
  Response Shift: 0.744 nm
PIV1056 [21]
  Response Shift: 0.805 nm
PIV1053 [22]
  Response Shift: 0.901 nm
PIV1049 [23]
  Response Shift: 0.883 nm
PIV1061 [24]
  Response Shift: 0.648 nm
PIV1062 [25]
  Response Shift: 0.714 nm
PIV1060 [26]
  Response Shift: 0.671 nm
PIV1067 [27]
  Response Shift: 0.896 nm
PIV1057 [28]
  Response Shift: 0.808 nm
PIV1064
  Response Shift: 0.897 nm
PIV1047
  Response Shift: 0.862 nm
PIV1058
  Response Shift: 0.704 nm
PIV1059 [29]
  Response Shift: 0.903 nm
PIV1054 [30]
  Response Shift: 0.826 nm
[31]
  Response Shift: 0.646 nm
PIV1052
  Response Shift: -0.026 nm
PIV1068 [32]
  Response Shift: 0.65 nm
PIV1014
  Response Shift: 0.857 nm
